The values that follow come from a protein production outcome set (Wang et al. 2014).

The series in a line: label from the status in PepcDB records.

Turning to “MSNQFIQYLNRAASGSIPGFVIMKLLMLELPNLMGLLLPLGFYVALLLAYGRLYAESEMTVLRACGYGPRQLLKHSFAMATVVLVVVAIVMIWASPVIAVERIKLIRSTGIKTLIQTIMPGRFHAINSGQQIFYVQSMNRDHSQAEQIFMAKHSVQDNRLLWDVLWADKAFAEVNPQTGEEYIVLQNGKEYQGVPGHADYQIAEFASYKSKLPNPTVVMHDDARTAKTRDLWPLNNHDLKKAAELQWRISIPLMVLTLTLVAVPLSRVSPRSGKYSKLLPAIIIYIFYANFMFVSRDAIATGKIPWWIGMWWVHVAVAILGILFIWRNQVKLA”, the protein production result was “failed”.

For the sequence “MSNSRELGDLLEQIRLGEDSQLEFKRVVFENDKIKGPNGDSLSQEIAAFANAIGGRLILGVDDKTRDVVGIPLDRLDAVSIWLENCVHDRIKPEPTIYLRRRLVPDRSGTEHAVLVIDIPRSLYVHLAPGGYFRRQGSSKHELPPNELLRLMQSRQRAGTLGFDEMPVLGCTQANFDAALYGRFLGTTDEPEELRLRKLKLLVPGEPGEEWASVAGVLMATATPSDWLPQAYVQCVHYAGTEKTAQEQLDAQDIQGPLDQQIRQAAAFVLRGMRTAARKNLGRIDVPQFDPEAVFEAIANAGAHRDYSISGAPVQVHLFTDRLEITSPGALPNSQSVESIALRTATRNELLTNLLARCPVEMEGVGRSRVMEKRGEGVPQILNRSERLSGHRPKFELLGENALRVTLYAADPETSPLLNEAGRGSVGLPHAGFARDDG”, the protein production entry is “failed”.

On to “MSNSSIDIGVPSLPPPFSIGTISIPTFSRQHLFLKIILHYNLVERYSRQLIVLGLGIQQRLNELKILIAGCGALGTAVAELLARLGVKELTIVDADVVDITNLHRVHLFDENDVGKPKAEVCAKKISLINSSIKINYIIDILDEENVERLISDKDYVFDALDSLYYKLLLNDAIVKLGKILIYGGINGEYGSAKLIDPSQTSCLSCFIDYSDQDEIGNSCDVIGTTPLIVELTATLQVNLMLNHLRGNPDYSLFYIDSRELKIERINIEKNSQCKTCVLNEYPFLYQKISKPKCGIFRTNMKIPELDEPKVFKNLGNVTLCYPSIGCFEKRGR”, for which the protein production entry is “failed”.

As for “MSNTYLASMALMGALVVAVVTWMVRGRGWYHYSPGSSTSGRSPTSDRESRFETYADQPMVWVGAFAVLVVGLLVGVVASISGPVETQSIAGLAVAVVGGAGLCGYLLFGVYLSATRRGHPRSLAVAESATVAGVLFLIAVGFQLVGA”, the protein production result is listed as “failed”.

For the sequence “MSNVLTEIDSQYPYMTKNEKKIAKFILNSPQKVIKMRSQDLASLLDISTSSVIRFSKKITDGGFHDLKINISKYVPKASSIYNVELMNNESTESLRTKLHTRTTRALNHANNELN”, the protein production entry is “not failed”.

Turning to “MSNVTAEQKKEVKGRGFLPSRDGEHFAARIITVNGVINASQAKKIAEAAEKFGNGQLAFTTRLTVELPGVKFEDIEALSEFIASENLITGGTGSRVRPVVACKGTVCVHGLADTQALAAEIHEEFYKNWYDVKLPHKFKIGVGGCPNNCIKPDLNDLGIVGQRVPDYDSELCVGCKKCAVVEVCPVKAAKLTDKGKLEIDSNLCNNCGKCIESCNFDSIEEKESGYKVYIGGKWGKSVRPGTQIDRLFSKEELMTLIEKAILLFREQGNTGERFGITIDRIGADKFIEMLLSDEVLERKEEILEALLHLTGGAVCLEHHHHHH”, the protein production entry is “failed”.

For the sequence “MSPARARLTAPIVLLMSVATGLAVASNYYAQPLLHTIGAEFALTTATAGAIVTVAQLSYAVGLILLVPLGDLYERRTLIALMTALSAVGLLLSAFSPGIGWLMLGTAVTGLLSVVAQVLVPFAATLAEPHERGKVVGAVMSGLLLGILLARTIAGALADLGSWRTVYWVAAILMLLMSMALWRVLPRSVNPTRLSYPRLLASIVQLYAQEPLLRARSVLGALLFAAFSMLWTPLTFLLSGPNYGYSNTTIGLFGLAGAIGAYGANRFGRLNDRGQGNRSTRQGLLLLASWPLLAWGAHHVAPLLAGVLALDLAIQAVHVTNQSAIYRLRPEARSRLTAGYMTSYFLGGAAGSLLSAWIYAHAGWLGVTAAGALTSLAALLYGCLARSARIPETTPAPAIA”, the protein production result is on record as “failed”.

For the sequence “MSPLALLFLTLFNSVLGLSILFPILGPLGRALGLTEVQVGLFSTGYALMQFLLSPYWGRRSERGRKPVLLVGILGFAASFLLFGVFALLGERGLVPPGLLFFLLLLARLLGGAFSSATLPTAQAYVADVTGRENRTAGMALLGAAFGLAVILGPALGAGLAALFGLLAPVFFSAGIALLNALFVYLVLPESRPRGQEAGARLSPFDPRVFPLLLLGLALNLSSVALEQTIAFYFQDRLLLGGVETAQKVGLALVLYGVVAVFVQGVLVRKTGWPPRVLLSLGLPLGILGFVLLVYAKTFWALALGLALQGAGQGLALPGVTAALSLAVGEGEQGLVAGLNSSAQALGRMLGPIVGTGLYRLAPEGPYVLGASLLLLALLFLPALFRRARL”, the protein production result is listed as “failed”.

Take “MSPMAPVARAKRKFILLLIKPSHYDDDGYVLRWWRGIIPSNSLATLYGIAADVAARQVLGADVEFEIEAMDEFNTRIDIPALLDRFARNGNFGLVGLVGVQSNQYPRALDIARPFRASGVPVVMGGFHVSGCLAMLDGKAIGLDDCRDMGVAMFAGEAEGGRFDGVLQDAAAGQLQPVYNFLNDLPGIEGVPAPYLPLATVKRTLGLSTSVDAGRGCPYQCSFCTIINVQGRKSRYRTPDDIEAMVRRNWAQGISKYFITDDNFARNKDWEAILDRLIQIRETEDIPLGFMIQVDTLCHKIPRFIEKAKRAGVTRVFIGLENINPANLLTANKRQNKITEYRAMLLAWKDHGIITLAGYILGFPADTPASIRADIDIIKRELPIDVMEFFCLTPLPGSEDHQTLWRAGVAMDPDLNNYDVEHVCTAHPLMSRPEWEAIYREAWSRYYTPDHIETLLRRAAATGIKISSLVKLLAIFSTAIRVENVHPLQCGLFRQRHPSERRPGLAAPNALLFWPRFALDSVRKTGVILAAFAKVAAIGVRVARDPQRLAYTDQALTPVSDDDADSLDLFTQSASAKQAVAHQKKVFDLTHGTP”: the protein production result is recorded as “failed”.

For the sequence “MSPPGQHYAQADAPQRPVLVQESSYLQLSSEAAEFVTQCQICGKPCQLADEPLWTTLATTIPSTIGAMAVSSAPHLPSGSFEWLTAGRVDPGSRVVVLCPTVAHCRAVASHGADVLAVHRDPDTAEKLNRIPGVMAVCGSPESLPLNSSSFDAVLVHQGFHELAPGLALPEIARVLRPGSVLGVSWLVRDDTVPWVKRLAALLRTVDENAMSGDYGTESVHELISSKYFPEDEHTTKRLWVPVNRDSLVAMAAARPAVRALDSDARSNVLTKVAALADDSAGTSGLRLPYQLECWRAWVDHDELTTPIRPHDDGLTITL”, the protein production entry is on record as “failed”.
